Assay results taken from patent US20210269525A1 (BIOCYTOGEN PHARMACEUTICALS BEIJING, published 2021).
Residue numbers refer to the chain shown, from its start.

T1: Cynomolgus CD3 epsilon Protein, His Tag (Acrobiosystems, Cat #CDE-05226) (cynomolgus (Macaca fascicularis), UniProt Q95LI5 22-117)
T1 construct: also called monkey CD3e; not shown: His tag
T1 sequence: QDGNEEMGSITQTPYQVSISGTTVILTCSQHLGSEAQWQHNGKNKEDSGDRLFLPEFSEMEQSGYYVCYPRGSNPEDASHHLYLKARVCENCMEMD

B1: 10A4-H2K2-IgG1-LALA (antibody, V domains shown)
VH: QVQLVQSGAEVKKPGASVKISCKASGYTFTSYYIHWVRQAPGQRLEFIGWIYPGNVNAKYNEKFKGRATITTDKSASTAYMELSSLRSEDTAVYYCAIKGGNYDWGQGTLVTVSS
VL: DVVMTQSPLSLPVTLGQPASISCQSSQSLLDSDGKTYLNWLQQRPGQSPRRLIYLVSKLGSGVPDRFSGSGSGTDFTLKISRVEAEDVGVYYCWQGTHFPRTFGGGTKLEIK
notes: Humanized; human IgG1 with LALA mutations; also called H2K2 (humanized 10A4)
B2: 10A4-H3K1-IgG1-LALA (antibody, V domains shown)
VH: B1 VH with A40R, I70L, Y95F
VL: B1 VL with L109V
notes: Humanized; human IgG1 with LALA mutations; also called H3K1 (humanized 10A4)
B3: 10A4-H3K3-IgG1-LALA (antibody, V domains shown)
VH: B1 VH with A40R, I70L, Y95F
VL: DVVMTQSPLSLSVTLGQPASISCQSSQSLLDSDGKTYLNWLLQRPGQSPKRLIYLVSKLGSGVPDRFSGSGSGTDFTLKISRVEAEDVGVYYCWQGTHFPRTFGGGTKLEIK
notes: Humanized; human IgG1 with LALA mutations; also called H3K3 (humanized 10A4)
B4: 10A4-H3K2-IgG1-LALA (antibody, V domains shown)
VH: B1 VH with A40R, I70L, Y95F
VL: B1 VL
notes: Humanized; human IgG1 with LALA mutations; also called H3K2 (humanized 10A4)
B5: 10A4-H4K1-IgG1-LALA (antibody, V domains shown)
VH: B1 VH with V5Q, K19R, A40R, R44G, I70L, Y95F
VL: B1 VL with L109V
notes: Humanized; human IgG1 with LALA mutations; also called H4K1 (humanized 10A4)
B6: 10A4-H4K2-IgG1-LALA (antibody, V domains shown)
VH: B1 VH with V5Q, K19R, A40R, R44G, I70L, Y95F
VL: B1 VL
notes: Humanized; human IgG1 with LALA mutations; also called H4K2 (humanized 10A4)
B7: 10A4-H4K3-IgG1-LALA (antibody, V domains shown)
VH: B1 VH with V5Q, K19R, A40R, R44G, I70L, Y95F
VL: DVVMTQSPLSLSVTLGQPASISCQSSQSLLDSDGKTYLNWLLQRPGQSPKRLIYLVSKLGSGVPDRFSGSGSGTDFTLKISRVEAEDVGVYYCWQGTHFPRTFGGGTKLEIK
notes: Humanized; human IgG1 with LALA mutations; also called H4K3 (humanized 10A4)
B8: 1B1-H3K3-IgG1-LALA (antibody, V domains shown)
VH: QVQLVQSGAEVKKPGASVKLSCKASGYTFTSYWMHWVRQRHGQGLEWIGNIYPDSGTTNYGEKFKTRVTLTVDTSTSTAYMELSSLRSEDTAVYYCTRDTSGQYYFDYWGQGTLVTVSS
VL: DIVMTQSPDSLAVSAGERVTMNCKSSQSLLNSRTRKNYLAWYQHKPGQSPKLLIYWASTRESGVPDRFSGSGSGTDFTLTISSVQAEDVAVYYCVQSFSLRAFGGGTKLEIK
notes: Humanized; human IgG1 with LALA mutations; also called H3K3 (humanized 1B1)

target: T2, human CD3e (T-cell surface glycoprotein CD3 epsilon chain) (human, UniProt P07766 23-207); assay: flow cytometry, human PBMC, antibody 0.01 ug/mL, anti-human IgG Fc-Alexa Fluor647 (1:500), anti-hTcRβ-PerCP (1:30)
T2 construct: Target of the anti-hCD3e antibodies on human PBMC, Jurkat cells and cells expressing human CD3e; on T cells it is part of the CD3/TCR complex; also called hCD3e; CD3e on human PBMC
Experimental: (§1) PBMC cells were collected from a human subject. After being thawed, the cells were cultured for 3-4 hours. The medium was then discarded, and the cells were resuspended in phosphate-buffered saline (PBS). The cell concentration was then adjusted to 2×10⁶/25 μl PBS.
(§2) A 96-well plate was prepared. 25 ul of cell suspension was added to each well. […] The cells and the antibodies were incubated. After centrifuge, the residues were discarded. The samples were washed again. 25 ul of PBS was then added to each well to resuspend cells.
(§3) Anti-human IgG Fc-Alexa Fluror647 (1:500) and anit-hTcRβ PerCP (1:30) were then added to each well. The cells and the antibodies were incubated and then the cells were washed again by PBS. 300 ul of PBS was then added to each well to resuspend the cells. FACS was performed.

Row | Binder | upper left quadrant, percent of cells AF647+ / hTcRβ-PerCP- | upper right quadrant, percent of cells AF647+ / hTcRβ-PerCP+
1 | B1 | 2.42% | 11.6%
2 | B2 | 2.62% | 12.9%
3 | B3 | 2.66% | 14%
4 | B4 | 2.75% | 15.2%
5 | B5 | 2.56% | 12%
6 | B6 | 2.25% | 16%
7 | B7 | 2.68% | 12.5%

target: T3, monkey CD3e (Macaca fascicularis) on PBMC (Macaca fascicularis, UniProt Q95LI5 22-198); assay: flow cytometry, Macaca fascicularis PBMC, antibody concentration not given, anti-human IgG Fc-Alexa Fluor647 (1:500), anti-hTcRβ-PerCP (1:30)
T3 construct: Target on PBMC from Macaca fascicularis; also called mfCD3e; monkey PBMC
Experimental: A 96-well plate was prepared. 25 ul of cell suspension was added to each well. Anti-hCD3 antibodies were added to the 96-well plate. The cells and the antibodies were incubated for 15 minutes at 4° C. 185 ul PBS was then added to each well. After centrifuge at 2000 rpm for 5 minutes, the medium was discarded. The samples were washed again. 25 ul of PBS was then added to resuspend cells.
Anti-human IgG Fc-Alexa Fluror647 (1:500) and anti-hTcRβ PerCP (1:30) were then added to each well. The cells and the antibodies were incubated for 15 minutes at 4° C. 185 ul PBS was then added to each well. After centrifuge, the residues were discarded. The samples were washed again. 25 ul of PBS was then added to resuspend cells. […] In contrast, anti-hTcRβ PerCP cannot bind to monkey PBMC.

Row | Binder | upper left quadrant, percent of cells AF647+ / hTcRβ-PerCP- | upper right quadrant, percent of cells AF647+ / hTcRβ-PerCP+
8 | B8 | 86.8% | 9.46%
9 | B1 | 44.2% | 3.1%
10 | B2 | 52% | 2.39%
11 | B3 | 46% | 2.58%
12 | B4 | 45.1% | 1.69%
13 | B5 | 68.5% | 3.45%
14 | B6 | 44.9% | 1.49%
15 | B7 | 82.7% | 0.225%

target: T2, human CD3e (T-cell surface glycoprotein …); assay: flow cytometry, human PBMC, antibody 1 ug/mL, anti-human IgG Fc-Alexa Fluor647 (1:500), anti-hTcRβ-PerCP (1:30)
Experimental: as §1, §2, §3

Row | Binder | upper left quadrant, percent of cells AF647+ / hTcRβ-PerCP- | upper right quadrant, percent of cells AF647+ / hTcRβ-PerCP+
16 | B2 | 14.5% | 75%
17 | B3 | 14.3% | 74.7%
18 | B4 | 12.4% | 75.8%
19 | B5 | 12.4% | 76.8%
20 | B6 | 15% | 74.4%
21 | B7 | 11.5% | 76.6%

target: T1, Cynomolgus CD3 epsilon Protein, His Tag …; assay: SPR (Biacore), cynomolgus CD3e His tag
Experimental: The binding affinity of the anti-hCD3e antibodies with monkey CD3e (Cynomolgus CD3 epsilon Protein (SEQ ID NO: 39 AA Gln 22-Asp 117), His Tag, Acrobiosystems, Cat #CDE-05226) were also measured using surface plasmon resonance (SPR) using Biacore (Biacore, INC, Piscataway N.J.) by the methods as described in the examples.

Row | Binder | Kd | koff | kon
22 | B1 | 8.21 nM | 0.000411 s⁻¹ | 50100 M⁻¹ s⁻¹

target: T2, human CD3e (T-cell surface glycoprotein …); assay: flow cytometry, human PBMC, antibody 1 µg/mL, anti-human IgG Fc-Alexa Fluor647 (1:500), anti-hTcRβ-PerCP (1:30)
Experimental: as §1, §2, §3

Row | Binder | upper left quadrant, percent of cells AF647+ / hTcRβ-PerCP- | upper right quadrant, percent of cells AF647+ / hTcRβ-PerCP+
23 | B8 | 11.6% | 58.1%

target: T2, human CD3e (T-cell surface glycoprotein …); assay: flow cytometry, human PBMC, antibody 0.1 µg/mL, anti-human IgG Fc-Alexa Fluor647 (1:500), anti-hTcRβ-PerCP (1:30)
Experimental: as §1, §2, §3

Row | Binder | upper left quadrant, percent of cells AF647+ / hTcRβ-PerCP- | upper right quadrant, percent of cells AF647+ / hTcRβ-PerCP+
24 | B8 | 11.8% | 54.5%

target: T2, human CD3e (T-cell surface glycoprotein …); assay: cell-based or functional assay

Row | Binder | EC50, luciferase of Jurkat-Luc-NFAT cells; antibody from supernatant | EC50, luciferase of Jurkat-Luc-NFAT cells; purified antibody
25 | B1 | 0.247 µg/mL | 0.263 µg/mL
26 | B2 | 0.198 µg/mL | –
27 | B3 | 0.475 µg/mL | –
28 | B4 | 0.205 µg/mL | –
29 | B5 | 0.234 µg/mL | –
30 | B6 | 0.253 µg/mL | –
31 | B7 | 0.477 µg/mL | –

target: T2, human CD3e (T-cell surface glycoprotein …); assay: flow cytometry, human PBMC, antibody 10 µg/mL, anti-human IgG Fc-Alexa Fluor647 (1:500), anti-hTcRβ-PerCP (1:30)
Experimental: as §1
A 96-well plate was prepared. 25 ul of cell suspension was added to each well. Anti-hCD3e antibodies with different combinations of humanized 1B1 heavy chain variants and humanized 1B1 light chain variants were diluted to 20 ug/ml (2×) in PBS, and were added to the 96-well plate. The cells and the antibodies were incubated. After centrifuge, the residues were discarded. The samples were washed again. 25 ul of PBS was then added to each well to resuspend cells.
as §3

Row | Binder | upper left quadrant, percent of cells AF647+ / hTcRβ-PerCP- | upper right quadrant, percent of cells AF647+ / hTcRβ-PerCP+
32 | B8 | 9.61% | 63.7%

target: T4, Histidine-tagged human CD3e protein (human, UniProt P07766 23-126); assay: SPR (Biacore), human CD3e
T4 construct: also called hCD3e-His; not shown: His tag

Row | Binder | Kd | koff | kon
33 | B1 | 1.96 nM | 0.000134 s⁻¹ | 68400 M⁻¹ s⁻¹
34 | B2 | 2.12 nM | 0.00014 s⁻¹ | 65900 M⁻¹ s⁻¹
35 | B3 | 1.73 nM | 0.000107 s⁻¹ | 62100 M⁻¹ s⁻¹
36 | B4 | 2.02 nM | 0.000126 s⁻¹ | 62100 M⁻¹ s⁻¹
37 | B5 | 1.31 nM | 8.91e-05 s⁻¹ | 68100 M⁻¹ s⁻¹
38 | B6 | 1.6 nM | 0.000103 s⁻¹ | 64100 M⁻¹ s⁻¹
39 | B7 | 1.05 nM | 6.33e-05 s⁻¹ | 60300 M⁻¹ s⁻¹

target: T4, Histidine-tagged human CD3e protein; assay: SPR (Biacore), human CD3e; remark: another data set of the same source

Row | Binder | Kd | koff | kon
40 | B8 | 0.718 nM | 0.000501 s⁻¹ | 698000 M⁻¹ s⁻¹

target: T2, human CD3e (T-cell surface glycoprotein …); assay: flow cytometry, human PBMC, antibody 0.1 ug/mL, anti-human IgG Fc-Alexa Fluor647 (1:500), anti-hTcRβ-PerCP (1:30)
Experimental: as §1, §2, §3

Row | Binder | upper left quadrant, percent of cells AF647+ / hTcRβ-PerCP- | upper right quadrant, percent of cells AF647+ / hTcRβ-PerCP+
41 | B1 | 8.05% | 53.3%
42 | B2 | 10.7% | 55.6%
43 | B3 | 9.79% | 54.8%
44 | B4 | 12.2% | 61.3%
45 | B5 | 9.91% | 51.2%
46 | B6 | 8.54% | 57.1%
47 | B7 | 11% | 54.4%
